B1: Nucleoporin p54 (Homo sapiens), Q7Z3B4 (parent)
chain: MAFNFGAPSGTSGTAAATAAPAGGFGGFGTTSTTAGSAFSFSAPTNTGTTGLFGGTQNKGFGFGTGFGTTTGTSTGLGTGLGTGLGFGGFNTQQQQQTTLGGLFSQPTQAPTQSNQLINTASALSAPTLLGDERDAILAKWNQLQAFWGTGKGYFNNNIPPVEFTQENPFCRFKAVGYSCMPSNKDEDGLVVLVFNKKETEIRSQQQQLVESLHKVLGGNQTLTVNVEGTKTLPDDQTEVVIYVVERSPNGTSRRVPATTLYAHFEQANIKTQLQQLGVTLSMTRTELSPAQIKQLLQNPPAGVDPIIWEQAKVDNPDSEKLIPVPMVGFKELLRRLKVQDQMTKQHQTRLDIISEDISELQKNQTTSVAKIAQYKRKLMDLSHRTLQVLIKQEIQRKSGYAIQADEEQLRVQLDTIQGELNAPTQFKGRLNELMSQIRMQNHFGAVRSEERYYIDADLLREIKQHLKQQQEGLSHLISIIKDDLEDIKLVEHGLNETIHIRGGVFS
B2: Tuftelin-interacting protein 11 (Homo sapiens), Q9UBB9 (parent)
chain: MSLSHLYRDGEGRIDDDDDERENFEITDWDLQNEFNPNRQRHWQTKEEATYGVWAERDSDDERPSFGGKRARDYSAPVNFISAGLKKGAAEEAELEDSDDEEKPVKQDDFPKDFGPRKLKTGGNFKPSQKGFAGGTKSFMDFGSWERHTKGIGQKLLQKMGYVPGRGLGKNAQGIINPIEAKQRKGKGAVGAYGSERTTQSMQDFPVVDSEEEAEEEFQKELSQWRKDPSGSKKKPKYSYKTVEELKAKGRISKKLTAPQKELSQVKVIDMTGREQKVYYSYSQISHKHNVPDDGLPLQSQQLPQSGKEAKAPGFALPELEHNLQLLIDLTEQEIIQNDRQLQYERDMVVNLFHELEKMTEVLDHEERVISNLSKVLEMVEECERRMQPDCSNPLTLDECARIFETLQDKYYEEYRMSDRVDLAVAIVYPLMKEYFKEWDPLKDCTYGTEIISKWKSLLENDQLLSHGGQDLSADAFHRLIWEVWMPFVRNIVTQWQPRNCDPMVDFLDSWVHIIPVWILDNILDQLIFPKLQKEVENWNPLTDTVPIHSWIHPWLPLMQARLEPLYSPIRSKLSSALQKWHPSDSSAKLILQPWKDVFTPGSWEAFMVKNIVPKLGMCLGELVINPHQQHMDAFYWVIDWEGMISVSSLVGLLEKHFFPKWLQVLCSWLSNSPNYEEITKWYLGWKSMFSDQVLAHPSVKDKFNEALDIMNRAVSSNVGAYMQPGARENIAYLTHTERRKDFQYEAMQERREAENMAQRGIGVAASSVPMNFKDLIETKAEEHNIVFMPVIGKRHEGKQLYTFGRIVIYIDRGVVFVQGEKTWVPTSLQSLIDMAK
partner: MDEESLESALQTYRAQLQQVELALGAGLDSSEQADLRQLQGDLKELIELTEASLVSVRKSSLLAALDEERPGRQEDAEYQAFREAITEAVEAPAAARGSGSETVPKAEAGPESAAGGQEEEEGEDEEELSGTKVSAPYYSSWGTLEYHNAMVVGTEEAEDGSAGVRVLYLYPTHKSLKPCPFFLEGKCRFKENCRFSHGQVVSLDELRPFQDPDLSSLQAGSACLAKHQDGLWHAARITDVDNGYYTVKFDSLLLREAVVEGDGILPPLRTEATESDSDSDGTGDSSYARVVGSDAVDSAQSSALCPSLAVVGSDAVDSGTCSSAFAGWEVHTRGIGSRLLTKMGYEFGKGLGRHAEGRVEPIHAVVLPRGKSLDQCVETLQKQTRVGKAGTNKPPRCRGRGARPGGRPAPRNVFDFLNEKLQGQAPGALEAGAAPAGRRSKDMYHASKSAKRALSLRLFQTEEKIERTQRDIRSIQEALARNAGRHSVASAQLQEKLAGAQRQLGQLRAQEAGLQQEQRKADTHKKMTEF
B3: Lymphotoxin-alpha (Homo sapiens), P01374 (parent)
chain: MTPPERLFLPRVCGTTLHLLLLGLLLVLLPGAQGLPGVGLTPSAAQTARQHPKMHLAHSTLKPAAHLIGDPSKQNSLLWRANTDRAFLQDGFSLSNNSLLVPTSGIYFVYSQVVFSGKAYSPKATSSPLYLAHEVQLFSSQYPFHVPLLSSQKMVYPGLQEPWLHSMYHGAAFQLTQGDQLSTHTDGIPHLVLSPSTVFFGAFAL
partner: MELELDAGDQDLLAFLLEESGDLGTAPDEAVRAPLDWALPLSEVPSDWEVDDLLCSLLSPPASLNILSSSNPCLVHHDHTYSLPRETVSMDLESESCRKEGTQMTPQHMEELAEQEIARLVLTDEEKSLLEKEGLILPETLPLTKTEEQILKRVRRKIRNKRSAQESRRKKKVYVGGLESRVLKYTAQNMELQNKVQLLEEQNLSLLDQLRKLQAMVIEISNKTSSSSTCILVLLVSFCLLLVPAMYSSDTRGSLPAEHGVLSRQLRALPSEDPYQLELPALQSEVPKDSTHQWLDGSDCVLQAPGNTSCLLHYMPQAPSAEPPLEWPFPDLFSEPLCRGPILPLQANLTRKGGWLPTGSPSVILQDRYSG
B4: Zinc finger protein 581 (Homo sapiens), Q9P0T4 (parent)
chain: MLVLPSPCPQPLAFSSVETMEGPPRRTCRSPEPGPSSSIGSPQASSPPRPNHYLLIDTQGVPYTVLVDEESQREPGASGAPGQKKCYSCPVCSRVFEYMSYLQRHSITHSEVKPFECDICGKAFKRASHLARHHSIHLAGGGRPHGCPLCPRRFRDAGELAQHSRVHSGERPFQCPHCPRRFMEQNTLQKHTRWKHP

The first assay covers variants of B1. As to conditions: with nup62_human NUP62, P37198.
Sequence of nup62_human NUP62, P37198 (P37198 whole entry): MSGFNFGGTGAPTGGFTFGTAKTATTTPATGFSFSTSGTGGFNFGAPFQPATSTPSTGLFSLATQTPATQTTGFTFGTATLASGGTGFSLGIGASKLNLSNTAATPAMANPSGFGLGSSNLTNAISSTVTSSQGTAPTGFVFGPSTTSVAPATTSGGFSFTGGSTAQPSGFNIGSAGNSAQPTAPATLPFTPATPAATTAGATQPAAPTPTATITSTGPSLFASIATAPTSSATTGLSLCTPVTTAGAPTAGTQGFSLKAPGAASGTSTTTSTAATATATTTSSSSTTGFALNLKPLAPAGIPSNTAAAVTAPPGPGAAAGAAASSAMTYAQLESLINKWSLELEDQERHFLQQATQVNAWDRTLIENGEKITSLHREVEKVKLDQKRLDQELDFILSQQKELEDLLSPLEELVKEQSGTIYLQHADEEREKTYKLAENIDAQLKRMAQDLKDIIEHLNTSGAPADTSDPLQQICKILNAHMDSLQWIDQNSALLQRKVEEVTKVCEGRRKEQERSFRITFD
In the case of R385K, the “effect of a mutation on the interaction” value is on record as “with no effect”.

Turning to N250S, the “effect of a mutation on the interaction” value is recorded as “with no effect”.

Variants of B1 are the subject of another assay. As to conditions: with nup58_human NUP58, Q9BVL2.
Sequence of nup58_human NUP58, Q9BVL2 (Q9BVL2 whole entry): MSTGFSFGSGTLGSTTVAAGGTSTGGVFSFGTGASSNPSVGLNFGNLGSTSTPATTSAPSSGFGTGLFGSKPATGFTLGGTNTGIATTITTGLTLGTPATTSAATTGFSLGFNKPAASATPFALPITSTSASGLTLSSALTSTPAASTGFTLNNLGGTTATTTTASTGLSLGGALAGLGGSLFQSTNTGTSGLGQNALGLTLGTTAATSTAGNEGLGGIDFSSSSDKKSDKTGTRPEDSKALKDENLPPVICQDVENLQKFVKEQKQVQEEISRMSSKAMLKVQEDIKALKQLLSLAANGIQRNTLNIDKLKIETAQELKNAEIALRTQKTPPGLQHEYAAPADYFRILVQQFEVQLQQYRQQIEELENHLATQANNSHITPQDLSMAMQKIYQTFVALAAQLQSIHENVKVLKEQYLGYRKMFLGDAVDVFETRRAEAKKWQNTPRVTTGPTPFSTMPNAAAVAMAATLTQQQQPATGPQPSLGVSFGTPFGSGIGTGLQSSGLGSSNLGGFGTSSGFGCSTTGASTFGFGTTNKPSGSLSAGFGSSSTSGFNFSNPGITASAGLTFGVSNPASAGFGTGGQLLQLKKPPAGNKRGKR
Consider R385K, for which the “effect of a mutation on the interaction” value is given as “with no effect”.

For N250S, the “effect of a mutation on the interaction” value was “with no effect”.

In the next assay the parent is B1. As to conditions: with hgs_human HGS.
For the variant R385K, the “effect of a mutation on the interaction” value was “with no effect”.

Turning to N250S, the “effect of a mutation on the interaction” value was “with no effect”.

Another assay covers variants of B1. As to conditions: with KRT15, P19012.
Sequence of KRT15, P19012 (P19012 whole entry): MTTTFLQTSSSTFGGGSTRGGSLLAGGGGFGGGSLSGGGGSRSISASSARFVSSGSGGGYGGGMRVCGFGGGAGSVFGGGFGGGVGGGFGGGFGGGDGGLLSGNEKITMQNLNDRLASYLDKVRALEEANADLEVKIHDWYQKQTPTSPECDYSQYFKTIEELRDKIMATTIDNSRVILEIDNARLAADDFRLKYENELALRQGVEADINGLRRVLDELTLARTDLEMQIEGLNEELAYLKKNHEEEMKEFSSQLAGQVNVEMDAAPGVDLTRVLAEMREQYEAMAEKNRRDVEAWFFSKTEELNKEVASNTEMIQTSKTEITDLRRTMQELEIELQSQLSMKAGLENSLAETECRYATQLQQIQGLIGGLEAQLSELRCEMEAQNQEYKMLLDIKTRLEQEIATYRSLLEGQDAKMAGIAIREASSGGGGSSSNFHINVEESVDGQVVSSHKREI
On to R385K, for which the “effect of a mutation on the interaction” value is recorded as “with no effect”.

Regarding N250S, the “effect of a mutation on the interaction” value is recorded as “with no effect”.

Variants of B2 are the subject of another assay. As to conditions: with zgpat_human ZGPAT.
For the variant S688L, the “effect of a mutation on the interaction” value is recorded as “with no effect”.

For the variant R8Q, the “effect of a mutation on the interaction” value is recorded as “with no effect”.

Another assay covers variants of B3. Particulars: with creb3_human CREB3, O43889.
Consider T60N, for which the “effect of a mutation on the interaction” value is given as “with no effect”.

A further assay covers variants of B4. As to conditions: with cc136_human CCDC136, Q96JN2.
Sequence of cc136_human CCDC136, Q96JN2 (Q96JN2 whole entry): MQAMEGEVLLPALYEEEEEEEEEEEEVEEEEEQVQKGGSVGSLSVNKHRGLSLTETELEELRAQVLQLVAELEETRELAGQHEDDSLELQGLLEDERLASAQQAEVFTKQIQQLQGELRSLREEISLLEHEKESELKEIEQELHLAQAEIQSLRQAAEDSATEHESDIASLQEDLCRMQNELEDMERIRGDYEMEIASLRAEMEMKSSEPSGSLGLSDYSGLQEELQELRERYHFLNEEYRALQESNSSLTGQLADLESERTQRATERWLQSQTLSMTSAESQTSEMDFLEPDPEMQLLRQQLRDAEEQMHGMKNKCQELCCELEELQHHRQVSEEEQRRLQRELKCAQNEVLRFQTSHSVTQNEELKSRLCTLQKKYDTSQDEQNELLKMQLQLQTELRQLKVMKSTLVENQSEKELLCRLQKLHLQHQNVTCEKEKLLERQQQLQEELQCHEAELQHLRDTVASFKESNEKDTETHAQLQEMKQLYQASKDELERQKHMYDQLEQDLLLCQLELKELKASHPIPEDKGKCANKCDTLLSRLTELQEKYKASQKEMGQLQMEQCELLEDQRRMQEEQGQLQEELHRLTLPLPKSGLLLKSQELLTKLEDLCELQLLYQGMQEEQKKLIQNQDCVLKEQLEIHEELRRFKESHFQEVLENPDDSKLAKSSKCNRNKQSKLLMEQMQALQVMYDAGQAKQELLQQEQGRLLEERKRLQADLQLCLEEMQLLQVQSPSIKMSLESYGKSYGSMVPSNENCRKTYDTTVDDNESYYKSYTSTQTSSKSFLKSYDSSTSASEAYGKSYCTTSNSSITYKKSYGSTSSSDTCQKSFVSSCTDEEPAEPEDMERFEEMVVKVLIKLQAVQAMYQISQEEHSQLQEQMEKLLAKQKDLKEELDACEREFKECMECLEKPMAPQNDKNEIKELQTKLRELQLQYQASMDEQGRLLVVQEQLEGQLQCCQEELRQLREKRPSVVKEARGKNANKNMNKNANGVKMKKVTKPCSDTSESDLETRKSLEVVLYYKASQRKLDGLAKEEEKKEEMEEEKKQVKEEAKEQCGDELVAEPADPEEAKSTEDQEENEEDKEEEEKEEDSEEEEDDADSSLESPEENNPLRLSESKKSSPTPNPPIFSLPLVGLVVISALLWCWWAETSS
Consider R143W, for which the “effect of a mutation on the interaction” value is given as “with no effect”.

Variants of B4 are the subject of the next assay. As to conditions: with mtus2_human MTUS2, Q5JR59.
Sequence of mtus2_human MTUS2, Q5JR59 (Q5JR59 whole entry): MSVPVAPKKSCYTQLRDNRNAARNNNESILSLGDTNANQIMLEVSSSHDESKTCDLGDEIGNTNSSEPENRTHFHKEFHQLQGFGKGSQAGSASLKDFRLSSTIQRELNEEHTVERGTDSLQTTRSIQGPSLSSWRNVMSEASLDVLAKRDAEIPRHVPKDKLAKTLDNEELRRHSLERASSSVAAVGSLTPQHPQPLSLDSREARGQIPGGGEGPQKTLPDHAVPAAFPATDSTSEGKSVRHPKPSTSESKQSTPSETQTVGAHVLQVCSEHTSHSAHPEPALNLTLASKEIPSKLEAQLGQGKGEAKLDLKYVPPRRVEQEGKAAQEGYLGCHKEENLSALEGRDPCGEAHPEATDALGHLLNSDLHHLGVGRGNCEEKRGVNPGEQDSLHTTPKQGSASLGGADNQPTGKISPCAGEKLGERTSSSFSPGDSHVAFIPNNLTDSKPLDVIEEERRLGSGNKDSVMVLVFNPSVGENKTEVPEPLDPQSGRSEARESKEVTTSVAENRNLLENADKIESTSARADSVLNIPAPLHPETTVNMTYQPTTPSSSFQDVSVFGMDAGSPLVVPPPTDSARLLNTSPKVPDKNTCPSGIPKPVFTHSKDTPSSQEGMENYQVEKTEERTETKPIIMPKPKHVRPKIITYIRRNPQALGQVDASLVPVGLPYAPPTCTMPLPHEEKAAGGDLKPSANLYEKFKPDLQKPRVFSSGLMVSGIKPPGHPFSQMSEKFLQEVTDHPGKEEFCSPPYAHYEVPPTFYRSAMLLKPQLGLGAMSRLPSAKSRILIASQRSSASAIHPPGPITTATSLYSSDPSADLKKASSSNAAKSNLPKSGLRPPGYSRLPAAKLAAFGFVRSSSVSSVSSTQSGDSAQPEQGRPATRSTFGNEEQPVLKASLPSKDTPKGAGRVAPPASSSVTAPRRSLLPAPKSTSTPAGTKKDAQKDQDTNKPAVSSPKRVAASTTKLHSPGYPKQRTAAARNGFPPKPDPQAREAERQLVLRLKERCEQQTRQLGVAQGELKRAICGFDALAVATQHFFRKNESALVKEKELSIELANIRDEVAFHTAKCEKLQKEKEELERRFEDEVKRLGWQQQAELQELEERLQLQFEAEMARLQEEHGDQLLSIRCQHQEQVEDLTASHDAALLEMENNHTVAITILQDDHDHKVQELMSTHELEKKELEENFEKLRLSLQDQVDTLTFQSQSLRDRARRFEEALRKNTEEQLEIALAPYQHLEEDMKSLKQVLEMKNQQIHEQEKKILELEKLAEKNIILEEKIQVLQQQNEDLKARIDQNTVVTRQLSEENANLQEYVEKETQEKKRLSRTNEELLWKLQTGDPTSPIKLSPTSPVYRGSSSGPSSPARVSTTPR
Turning to R143W, the “effect of a mutation on the interaction” value is on record as “with no effect”.

Variants of B4 are the subject of a further assay. As to conditions: with tri23_human TRIM23, P36406.
Sequence of tri23_human TRIM23, P36406 (P36406 whole entry): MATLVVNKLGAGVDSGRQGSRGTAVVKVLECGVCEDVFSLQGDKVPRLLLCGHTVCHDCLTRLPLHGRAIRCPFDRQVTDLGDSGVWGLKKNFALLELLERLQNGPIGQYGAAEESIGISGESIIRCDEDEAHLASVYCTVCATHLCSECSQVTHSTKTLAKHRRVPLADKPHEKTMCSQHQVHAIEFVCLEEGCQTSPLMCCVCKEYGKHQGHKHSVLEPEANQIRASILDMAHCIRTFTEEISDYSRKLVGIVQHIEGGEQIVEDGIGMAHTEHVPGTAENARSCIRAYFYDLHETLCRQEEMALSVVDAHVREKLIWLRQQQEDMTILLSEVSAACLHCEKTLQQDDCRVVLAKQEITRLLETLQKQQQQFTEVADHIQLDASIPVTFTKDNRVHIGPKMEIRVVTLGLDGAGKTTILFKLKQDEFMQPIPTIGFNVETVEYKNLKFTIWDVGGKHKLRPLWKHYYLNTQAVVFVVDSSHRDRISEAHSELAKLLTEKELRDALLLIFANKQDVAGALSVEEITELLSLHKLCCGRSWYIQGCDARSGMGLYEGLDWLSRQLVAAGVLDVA
Turning to R143W, the “effect of a mutation on the interaction” value is on record as “with no effect”.

Source of the values: IntAct's records for PubMed 31515488.
